Measurements reported in PMC3227541.

Key:
[1] = target: fluorescein-labelled single cysteine mutant of arrestin-2 (arrestin-2-S234C on cysteine-less background) (bovine) (UniProt P17870); test: FRET or BRET
[2] = target: fluorescein-labelled single cysteine mutant of arrestin-3 (arrestin-3-L101C on cysteine-less background) (bovine) (UniProt P32120); test: FRET or BRET
Chain of UniProt P32120 (P32120 whole entry L101C, stated change not applied): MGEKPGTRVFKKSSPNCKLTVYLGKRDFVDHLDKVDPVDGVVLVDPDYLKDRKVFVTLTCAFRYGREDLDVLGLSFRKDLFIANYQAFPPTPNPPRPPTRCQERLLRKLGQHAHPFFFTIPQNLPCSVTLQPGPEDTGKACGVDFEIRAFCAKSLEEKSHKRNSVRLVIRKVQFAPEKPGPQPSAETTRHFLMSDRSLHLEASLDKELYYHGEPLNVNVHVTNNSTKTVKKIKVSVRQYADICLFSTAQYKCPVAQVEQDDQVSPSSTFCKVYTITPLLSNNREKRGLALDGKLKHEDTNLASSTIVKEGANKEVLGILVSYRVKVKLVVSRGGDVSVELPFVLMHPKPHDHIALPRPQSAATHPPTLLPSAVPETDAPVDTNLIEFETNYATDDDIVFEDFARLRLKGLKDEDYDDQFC

Chain of UniProt P17870 (P17870 whole entry S234C, stated change not applied): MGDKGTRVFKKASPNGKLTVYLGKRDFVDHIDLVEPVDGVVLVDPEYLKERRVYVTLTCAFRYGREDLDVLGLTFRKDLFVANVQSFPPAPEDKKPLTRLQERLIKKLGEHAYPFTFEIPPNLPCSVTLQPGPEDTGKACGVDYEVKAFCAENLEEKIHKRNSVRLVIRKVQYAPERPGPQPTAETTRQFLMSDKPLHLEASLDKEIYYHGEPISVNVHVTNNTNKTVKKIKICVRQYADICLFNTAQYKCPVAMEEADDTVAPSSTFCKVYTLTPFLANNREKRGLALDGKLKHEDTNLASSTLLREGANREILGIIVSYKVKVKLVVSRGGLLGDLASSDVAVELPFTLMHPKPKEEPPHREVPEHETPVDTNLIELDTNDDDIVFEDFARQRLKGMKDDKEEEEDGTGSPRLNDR

A Kd [1] of 6.1 µM and a Kd [2] of 4.4 µM were found for “Alexa-568-labeled JNK3α2-His (from UniProt P53779 1-464) (enzyme)” in this work.
